Assays:
rats = assay: Pre-clinical safety studies (acute 8 days, sub-acute 30 days) in rats; format: in vivo
Experimental: (§1) Various combinations of EGF were thus carried out and the combinations were subjected to thermal stability as per ICH guidelines. Pre-clinical studies for safety of the formulations with varying percentages of EGF, were conducted in both rats and rabbits, as per the approved guidelines. Briefly, acute toxicity studies were carried out for 8 days, sub-acute studies were carried on for 30 days and ocular irritation study was conducted for 7 days.

rabbits = assay: Pre-clinical safety studies (acute 8 days, sub-acute 30 days) in rabbits; format: in vivo
Experimental: as §1

`CC[C@H](C)[C@@H]1NC(=O)[C@H](Cc2ccc(O)cc2)NC(=O)CNC(=O)[C@H](C(C)C)NC(=O)[C@H](C(C)C)NC(=O)[C@@H](NC(=O)[C@H](CC(N)=O)NC(=O)[C@@H]2CSSC[C@@H]3NC(=O)[C@H](Cc4ccc(O)cc4)NC(=O)CNC(=O)[C@H](CC(=O)O)NC(=O)[C@H](Cc4c[nH]cn4)NC(=O)[C@H](CO)NC(=O)[C@H](CC(C)C)NC(=O)[C@@H]4CCCN4C(=O)[C@@H](NC(=O)[C@H](CCC(=O)O)NC(=O)[C@H](CO)NC(=O)[C@H](CC(=O)O)NC(=O)[C@H](CO)NC(=O)[C@@H](N)CC(N)=O)CSSC[C@H](NC(=O)[C@H](C(C)C)NC(=O)CNC(=O)[C@H](CC(=O)O)NC(=O)[C@H](Cc4c[nH]cn4)NC(=O)[C@H](CC(C)C)NC3=O)C(=O)N[C@@H](CCSC)C(=O)N[C@@H](Cc3ccc(O)cc3)C(=O)N[C@@H]([C@@H](C)CC)C(=O)N[C@@H](CCC(=O)O)C(=O)N[C@@H](C)C(=O)N[C@@H](CC(C)C)C(=O)N[C@@H](CC(=O)O)C(=O)N[C@@H](CCCCN)C(=O)N[C@@H](Cc3ccc(O)cc3)C(=O)N[C@@H](C)C(=O)N2)CSSC[C@@H](C(=O)N[C@@H](CCC(N)=O)C(=O)N[C@@H](Cc2ccc(O)cc2)C(=O)N[C@@H](CCCNC(=N)N)C(=O)N[C@@H](CC(=O)O)C(=O)N[C@@H](CC(C)C)C(=O)N[C@@H](CCCCN)C(=O)N[C@@H](Cc2c[nH]c3ccccc23)C(=O)N[C@@H](Cc2c[nH]c3ccccc23)C(=O)N[C@@H](CCC(=O)O)C(=O)N[C@@H](CC(C)C)C(=O)N[C@@H](CCCNC(=N)N)C(=O)O)NC(=O)[C@H](CCCNC(=N)N)NC(=O)[C@H](CCC(=O)O)NC(=O)CNC1=O` [EGF, Epidermal Growth Factor] was tested, and the biochemical parameters (rats; control vs treated) was “within the normal range and no abnormality was observed”, the “growth rate and food consumption” value (rats; control vs treated) was “normal & did not differ significantly” and the hematological parameters (rats; control vs treated) was “no observable changes”. For the same compound, the anti-body response (rats; treated groups) was “no observable anti-body response”, the biochemical parameters (rabbits; control vs treated) was “within the normal range and no abnormality was observed” and the “growth rate and food consumption” value (rabbits; control vs treated) was “normal & did not differ significantly”. The hematological parameters (rabbits; control vs treated) was “no observable changes” and the anti-body response (rabbits; treated groups) was “no observable anti-body response”.

From patent US8754043B2, “Epidermal growth factor compositions” (Bharat Biotech International Limited, priority 2005, dated 2014)
